The values below come from doi:10.1101/2021.08.02.454546 (bioRxiv, 2021).

In assay [1] the target is T1, SARS-CoV-2 S2 peptide #288 (1149-KEELDKYFKNHTSPD-1163) (SARS-CoV-2 (spike 1149-1163, matches …)).
T1 chain: KEELDKYFKNHTSPD
Nature of the assay: ELISA. The conditions noted are these: both partners purified.

Assay [2] deals with T2, shorter version of peptide #289 (1153-DKYFKNHTSPD-1163) (SARS-CoV-2 (spike 1153-1163, matches …)).
T2 chain: DKYFKNHTSPD
Nature of the assay: SPR. The conditions noted are these: both partners purified.

B1: CV3–25 IgG (antibody, V domains shown)
VH: EVQLVESGAEVKKPGESLKISCKGSGYTFTRYWIGWVRQMPGKGLEWMGIIYPGDSDTRYSPSFQGHVTISADKSISTAYLQWNSLKASDTAMYYCARLPQYCSNGVCQRWFDPWGQGTLVTVSS
VL: EIVLTQSPSSVSASVGDRVTITCRASQGISSWLAWYQQKPGKAPKLLIYAASSLQSGVPSRFSGSGSGTDFTLTISSLQPEDFATYYCQQGNSFPYTFGQGTNLEIK
B1: in assay [1], the binding result is “binds”. The Kd – broadly, the constant that tells how readily two partners part at equilibrium – in assay [2] was approximately 1000 nM.
